Results published in article PMC5934667 (Nucleic Acids Research, 2018).

Legend:
[1] = biological target: the molecule itself; assay: negative-stain EM, helical reconstruction
[2] = biological target: T1, RAD51 KA (human, UniProt Q06609 1-339, K133A); assay: EMSA
[3] = biological target: T2, RAD51 WT (human, UniProt Q06609 1-339); assay: EMSA
[4] = biological target: T3, RAD51 KR (human, UniProt Q06609 1-339, K133R); assay: EMSA
[5] = biological target: T3, RAD51 KR; assay: nuclease protection
[6] = biological target: T1, RAD51 KA; assay: nuclease protection
[7] = biological target: T2, RAD51 WT; assay: nuclease protection
[8] = biological target: RecA (bacterial, UniProt P0A7G6 1-353); assay: stopped-flow Cy3 fluorescence
Sequence of RecA (P0A7G6 whole entry): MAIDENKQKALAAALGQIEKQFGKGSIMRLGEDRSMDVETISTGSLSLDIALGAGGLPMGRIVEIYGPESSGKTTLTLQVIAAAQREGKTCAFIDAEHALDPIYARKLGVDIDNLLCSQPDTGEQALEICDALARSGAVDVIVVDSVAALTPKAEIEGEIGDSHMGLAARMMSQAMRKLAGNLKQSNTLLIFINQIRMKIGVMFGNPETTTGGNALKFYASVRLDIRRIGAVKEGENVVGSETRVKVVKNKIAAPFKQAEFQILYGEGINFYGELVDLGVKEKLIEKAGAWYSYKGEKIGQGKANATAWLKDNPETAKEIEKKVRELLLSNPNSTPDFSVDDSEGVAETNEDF

[9] = biological target: T3, RAD51 KR; assay: stopped-flow Cy3 fluorescence
[10] = biological target: T1, RAD51 KA; assay: stopped-flow Cy3 fluorescence

B1: Human RAD51 K133R (natural protein)
chain: MAMQMQLEANADTSVEEESFGPQPISRLEQCGINANDVKKLEEAGFHTVEAVAYAPKKELINIKGISEAKADKILAEAAKLVPMGFTTATEFHQRRSEIIQITTGSKELDKLLQGGIETGSITEMFGEFRTGRTQICHTLAVTCQLPIDRGGGEGKAMYIDTEGTFRPERLLAVAERYGLSGSDVLDNVAYARAFNTDHQTQLLYQASAMMVESRYALLIVDSATALYRTDYSGRGELSARQMHLARFLRMLLRLADEFGVAVVITNQVVAQVDGAAMFAADPKKPIGGNIIAHASTTRLYLRKGRGETRICKIYDSPCLPEAEAMFAINADGVGDAKD
Q: Does B1 bind [1]?
A: binds

B2: Human RAD51 K133A (natural protein)
chain: MAMQMQLEANADTSVEEESFGPQPISRLEQCGINANDVKKLEEAGFHTVEAVAYAPKKELINIKGISEAKADKILAEAAKLVPMGFTTATEFHQRRSEIIQITTGSKELDKLLQGGIETGSITEMFGEFRTGATQICHTLAVTCQLPIDRGGGEGKAMYIDTEGTFRPERLLAVAERYGLSGSDVLDNVAYARAFNTDHQTQLLYQASAMMVESRYALLIVDSATALYRTDYSGRGELSARQMHLARFLRMLLRLADEFGVAVVITNQVVAQVDGAAMFAADPKKPIGGNIIAHASTTRLYLRKGRGETRICKIYDSPCLPEAEAMFAINADGVGDAKD
Q: Does B2 bind [1]?
A: binds

B3: 83-mer (ssDNA)
DNA: AAATGAACATAAAGTAAATAAGTATAAGGATAATACAAAATAAGTAAATGAATAAACATAGAAAATAAAGTAAAGGATATAAA
Q: Does B3 bind [2]?
A: binds

Q: Does B3 bind [3]?
A: binds

Q: Does B3 bind [4]?
A: binds

B4: 61-mer (ssDNA)
DNA: GACGCTGCCGAATTCTACCAGTGCCTTGCTAGGACATCTTTGCCCACCTGCAGGTTCACCC
Q: Does B4 bind [5]?
A: binds

Q: Does B4 bind [6]?
A: binds

Q: Does B4 bind [7]?
A: binds

B5: 5'-Cy3-dT79 (ssDNA)
DNA: TTTTTTTTTTTTTTTTTTTTTTTTTTTTTTTTTTTTTTTTTTTTTTTTTTTTTTTTTTTTTTTTTTTTTTTTTTTTTTT
Q: With B5 as the binder, how does the Kd [8] read?
A: < 1.1 µM

Q: Does B5 bind [9]?
A: binds

Q: Does B5 bind [10]?
A: binds
